Values belong to the binder of their own block, whether it stands above or below them.
Assays:
[1] = target: T1, endogenous HDAC3, O15379
T1 chain: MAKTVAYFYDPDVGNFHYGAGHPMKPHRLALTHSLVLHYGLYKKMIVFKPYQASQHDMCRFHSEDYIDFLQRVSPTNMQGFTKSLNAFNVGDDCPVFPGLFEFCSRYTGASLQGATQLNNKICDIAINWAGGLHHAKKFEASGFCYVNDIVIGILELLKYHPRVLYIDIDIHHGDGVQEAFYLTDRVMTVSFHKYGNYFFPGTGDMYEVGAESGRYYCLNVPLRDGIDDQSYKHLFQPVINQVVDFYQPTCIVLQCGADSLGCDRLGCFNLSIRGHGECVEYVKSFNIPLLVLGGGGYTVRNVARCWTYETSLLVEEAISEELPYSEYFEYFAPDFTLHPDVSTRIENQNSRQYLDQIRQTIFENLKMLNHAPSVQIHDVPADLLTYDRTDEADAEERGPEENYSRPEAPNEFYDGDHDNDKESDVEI

[2] = target: endogenous HDAC1 (UniProt Q13547 1-482); assay: GST pull-down from SupT1 cell extracts, western blot
endogenous HDAC1, sequence (Q13547 whole entry): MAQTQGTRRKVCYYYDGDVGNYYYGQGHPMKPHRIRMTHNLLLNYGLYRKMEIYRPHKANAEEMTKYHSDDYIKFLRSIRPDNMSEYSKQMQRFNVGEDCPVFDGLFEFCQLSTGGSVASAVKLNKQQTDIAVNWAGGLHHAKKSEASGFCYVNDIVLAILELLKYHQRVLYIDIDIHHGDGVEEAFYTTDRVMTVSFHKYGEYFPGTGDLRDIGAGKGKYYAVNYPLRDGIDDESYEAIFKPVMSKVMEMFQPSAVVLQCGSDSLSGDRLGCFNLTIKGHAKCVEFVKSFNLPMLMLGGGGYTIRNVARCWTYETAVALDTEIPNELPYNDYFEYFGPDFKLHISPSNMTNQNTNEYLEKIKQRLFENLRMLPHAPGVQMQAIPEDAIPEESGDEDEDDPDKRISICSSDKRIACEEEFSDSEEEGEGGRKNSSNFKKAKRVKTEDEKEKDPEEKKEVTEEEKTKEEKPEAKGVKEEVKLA

[3] = target: endogenous HDAC2 (UniProt Q92769 1-488); assay: as above
endogenous HDAC2, sequence (Q92769 whole entry): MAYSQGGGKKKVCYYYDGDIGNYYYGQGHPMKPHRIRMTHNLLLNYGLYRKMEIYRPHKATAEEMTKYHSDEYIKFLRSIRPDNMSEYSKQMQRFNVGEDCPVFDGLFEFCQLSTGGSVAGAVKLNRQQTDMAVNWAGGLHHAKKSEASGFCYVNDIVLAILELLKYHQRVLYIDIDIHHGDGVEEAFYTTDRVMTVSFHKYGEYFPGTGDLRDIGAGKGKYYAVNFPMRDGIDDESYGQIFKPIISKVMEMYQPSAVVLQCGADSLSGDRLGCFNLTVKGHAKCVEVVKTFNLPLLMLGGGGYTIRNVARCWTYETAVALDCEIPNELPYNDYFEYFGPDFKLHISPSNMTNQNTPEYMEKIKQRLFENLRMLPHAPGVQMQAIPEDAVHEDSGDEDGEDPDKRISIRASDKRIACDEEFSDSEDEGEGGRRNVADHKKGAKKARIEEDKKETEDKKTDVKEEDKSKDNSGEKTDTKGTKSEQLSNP

[4] = target: T2, FLAG-tagged HDAC7-ΔMEF (expressed in DO11.10 cells) (human, UniProt Q8WUI4 1-952); assay: anti-FLAG immunoprecipitation from DO11.10 polyclonal cell lines, endogenous MEF2D
T2 construct: not shown: FLAG tag
T2 sequence: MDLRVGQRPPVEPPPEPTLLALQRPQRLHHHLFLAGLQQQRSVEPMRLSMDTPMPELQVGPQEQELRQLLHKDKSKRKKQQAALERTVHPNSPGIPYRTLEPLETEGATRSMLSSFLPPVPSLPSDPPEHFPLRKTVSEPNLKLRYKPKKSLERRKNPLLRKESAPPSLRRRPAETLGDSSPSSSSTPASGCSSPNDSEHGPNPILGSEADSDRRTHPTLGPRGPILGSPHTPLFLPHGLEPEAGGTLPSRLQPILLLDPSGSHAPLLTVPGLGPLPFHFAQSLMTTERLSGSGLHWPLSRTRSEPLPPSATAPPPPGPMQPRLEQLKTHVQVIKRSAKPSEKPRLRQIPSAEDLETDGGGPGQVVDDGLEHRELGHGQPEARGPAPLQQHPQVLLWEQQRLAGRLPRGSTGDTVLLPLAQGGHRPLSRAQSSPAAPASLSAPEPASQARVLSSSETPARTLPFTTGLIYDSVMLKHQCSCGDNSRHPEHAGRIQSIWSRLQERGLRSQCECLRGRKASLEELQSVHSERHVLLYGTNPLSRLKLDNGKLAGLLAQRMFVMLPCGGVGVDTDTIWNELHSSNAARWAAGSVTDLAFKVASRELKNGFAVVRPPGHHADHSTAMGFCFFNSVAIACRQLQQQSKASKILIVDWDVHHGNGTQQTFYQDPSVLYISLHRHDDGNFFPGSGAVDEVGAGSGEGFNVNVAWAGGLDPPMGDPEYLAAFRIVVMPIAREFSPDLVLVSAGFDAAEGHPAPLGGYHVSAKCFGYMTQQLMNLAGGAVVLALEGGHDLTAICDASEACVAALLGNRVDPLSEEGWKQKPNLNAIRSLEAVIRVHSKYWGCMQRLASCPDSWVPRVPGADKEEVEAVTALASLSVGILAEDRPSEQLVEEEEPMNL

[5] = target: T3, FLAG-tagged HDAC7-K86AK88A (expressed in DO11.10 cells) (human, UniProt Q8WUI4 1-952); assay: as above
T3 construct: not shown: FLAG tag
T3 sequence: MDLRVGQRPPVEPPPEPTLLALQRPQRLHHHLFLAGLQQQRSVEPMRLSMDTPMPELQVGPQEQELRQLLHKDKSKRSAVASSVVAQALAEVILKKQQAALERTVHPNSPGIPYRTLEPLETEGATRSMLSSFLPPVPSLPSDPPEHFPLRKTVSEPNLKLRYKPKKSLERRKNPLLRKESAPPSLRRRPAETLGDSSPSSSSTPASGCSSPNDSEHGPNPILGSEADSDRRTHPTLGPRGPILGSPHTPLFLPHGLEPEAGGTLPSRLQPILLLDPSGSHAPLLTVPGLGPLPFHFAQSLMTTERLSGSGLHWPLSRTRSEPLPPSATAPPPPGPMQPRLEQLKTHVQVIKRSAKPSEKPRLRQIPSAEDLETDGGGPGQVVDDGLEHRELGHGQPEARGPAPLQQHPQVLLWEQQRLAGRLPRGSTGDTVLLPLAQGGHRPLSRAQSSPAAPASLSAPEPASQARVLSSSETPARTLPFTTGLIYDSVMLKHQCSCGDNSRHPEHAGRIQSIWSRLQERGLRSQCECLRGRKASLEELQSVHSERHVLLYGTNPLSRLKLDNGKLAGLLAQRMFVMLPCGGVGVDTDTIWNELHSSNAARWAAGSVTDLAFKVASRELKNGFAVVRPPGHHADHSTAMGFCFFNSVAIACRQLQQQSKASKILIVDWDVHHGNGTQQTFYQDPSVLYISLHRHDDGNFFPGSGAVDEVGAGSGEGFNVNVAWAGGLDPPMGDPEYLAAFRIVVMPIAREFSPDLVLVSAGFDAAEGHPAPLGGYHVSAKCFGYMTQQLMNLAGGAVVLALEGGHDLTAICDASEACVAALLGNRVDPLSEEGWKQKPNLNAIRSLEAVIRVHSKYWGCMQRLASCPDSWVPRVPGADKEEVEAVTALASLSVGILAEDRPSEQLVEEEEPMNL

[6] = target: T4, endogenous HDAC3 (UniProt O15379 1-428); assay: GST pull-down from SupT1 cell extracts, western blot
T4 construct: SupT1 and 293 are human cell lines

- binding result [2]: no binding
- binding result [3]: no binding
B1: GST-HDAC7(aa 438-912) (enzyme)
chain: QGGHRPLSRAQSSPAAPASLSAPEPASQARVLSSSETPARTLPFTTGLIYDSVMLKHQCSCGDNSRHPEHAGRIQSIWSRLQERGLRSQCECLRGRKASLEELQSVHSERHVLLYGTNPLSRLKLDNGKLAGLLAQRMFVMLPCGGVGVDTDTIWNELHSSNAARWAAGSVTDLAFKVASRELKNGFAVVRPPGHHADHSTAMGFCFFNSVAIACRQLQQQSKASKILIVDWDVHHGNGTQQTFYQDPSVLYISLHRHDDGNFFPGSGAVDEVGAGSGEGFNVNVAWAGGLDPPMGDPEYLAAFRIVVMPIAREFSPDLVLVSAGFDAAEGHPAPLGGYHVSAKCFGYMTQQLMNLAGGAVVLALEGGHDLTAICDASEACVAALLGNRVDPLSEEGWKQKPNLNAIRSLEAVIRVHSKYWGCMQRLASCPDSWVPRVPGADKEEVEAVTALASLSVGILAEDRPSEQLVEEEEP
notes: also called active GST-HDAC7; not shown: glutathione-S-transferase (GST) of the pGEX4T1 vector (Pharmacia), N-terminal fusion partner
- HDAC activity associated with the GST pull-down from GST-HDAC4 depleted lysate against GST depleted lysate (fold reduction) [1]: 3

- binding result [4]: no binding
- binding result [5]: no binding
B2: endogenous MEF2D of DO11.10 T-cell hybridoma cells (other, UniProt Q63943 1-514, looked up)
chain: MGRKKIQIQRITDERNRQVTFTKRKFGLMKKAYELSVLCDCEIALIIFNHSNKLFQYASTDMDKVLLKYTEYNEPHESRTNADIIETLRKKGFNGCDSPEPDGEDSLEQSPLLEDKYRRASEELDGLFRRYGSSVPAPNFAMPVTVPVSNQSSMQFSNPSSSLVTPSLVTSSLTDPRLLSPQQPALQRNSVSPGLPQRPASAGAMLGGDLNSANGACPSPVGNGYVSARASPGLLPVANGNSLNKVIPAKSPPPPTHNTQLGAPSRKPDLRVITSQGGKGLMHHLTEDHLDLNNAQRLGVSQSTHSLTTPVVSVATPSLLSQGLPFSSMPTAYNTDYQLPSAELSSLPAFSSPAGLALGNVTAWQQPQPPQQPQPPQPPQSQPQPPQPQPQQPPQQQPHLVPVSLSNLIPGSPLPHVGAALTVTTHPHISIKSEPVSPSRERSPAPPPPAVFPAARPEPGEGLSSPAGGSYETGDRDDGRGDFGPTLGLLRPAPEPEAEGSAVKRMRLDTWTLK

- binding result [6]: no binding
B3: GST-HDAC7(aa 487-912) (enzyme)
chain: YDSVMLKHQCSCGDNSRHPEHAGRIQSIWSRLQERGLRSQCECLRGRKASLEELQSVHSERHVLLYGTNPLSRLKLDNGKLAGLLAQRMFVMLPCGGVGVDTDTIWNELHSSNAARWAAGSVTDLAFKVASRELKNGFAVVRPPGHHADHSTAMGFCFFNSVAIACRQLQQQSKASKILIVDWDVHHGNGTQQTFYQDPSVLYISLHRHDDGNFFPGSGAVDEVGAGSGEGFNVNVAWAGGLDPPMGDPEYLAAFRIVVMPIAREFSPDLVLVSAGFDAAEGHPAPLGGYHVSAKCFGYMTQQLMNLAGGAVVLALEGGHDLTAICDASEACVAALLGNRVDPLSEEGWKQKPNLNAIRSLEAVIRVHSKYWGCMQRLASCPDSWVPRVPGADKEEVEAVTALASLSVGILAEDRPSEQLVEEEEP
notes: not shown: glutathione-S-transferase (GST) of the pGEX4T1 vector (Pharmacia), N-terminal fusion partner
